Results: article PMC9482650, “Quantitative fragmentomics allow affinity mapping of interactomes” (Nature Communications, 2022)

T1: PTPN4, P29074
T1 sequence (P29074 512-599, limits assumed, looked up): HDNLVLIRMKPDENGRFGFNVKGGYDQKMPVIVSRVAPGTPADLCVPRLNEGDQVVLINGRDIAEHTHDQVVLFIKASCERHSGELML

T2: LNX2_4, Q8N448
T2 sequence (Q8N448 595-690, limits assumed, looked up): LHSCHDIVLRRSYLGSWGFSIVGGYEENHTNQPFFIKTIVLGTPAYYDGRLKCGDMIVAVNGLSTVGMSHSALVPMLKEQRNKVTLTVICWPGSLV

T3: SHROOM4, Q9ULL8
T3 sequence (Q9ULL8 5-102, limits assumed, looked up): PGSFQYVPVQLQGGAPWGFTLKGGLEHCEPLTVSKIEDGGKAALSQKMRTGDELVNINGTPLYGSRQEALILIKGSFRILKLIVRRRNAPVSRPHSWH

T4: USH1C_1, Q9Y6N9
T4 sequence (Q9Y6N9 82-179, limits assumed, looked up): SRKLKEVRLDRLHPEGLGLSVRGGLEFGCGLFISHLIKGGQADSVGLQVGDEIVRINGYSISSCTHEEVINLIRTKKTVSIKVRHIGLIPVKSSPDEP

T5: PDZD4, Q76G19
T5 sequence (Q76G19 125-224, limits assumed, looked up): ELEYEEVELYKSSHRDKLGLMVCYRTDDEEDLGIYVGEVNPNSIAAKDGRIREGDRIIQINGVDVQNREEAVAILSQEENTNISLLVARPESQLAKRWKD

T6: NHERF1_2, O14745
T6 sequence (O14745 149-244, limits assumed, looked up): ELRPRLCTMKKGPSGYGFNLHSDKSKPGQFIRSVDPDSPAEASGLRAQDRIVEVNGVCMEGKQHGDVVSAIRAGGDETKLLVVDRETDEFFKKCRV

T7: SNTB2, Q13425
T7 sequence (Q13425 110-208, limits assumed, looked up): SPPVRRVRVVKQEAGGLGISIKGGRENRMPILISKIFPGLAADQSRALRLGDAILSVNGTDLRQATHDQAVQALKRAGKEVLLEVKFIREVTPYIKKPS

T8: SYNPO2L, Q9H987
T8 sequence (Q9H987 1-98, limits assumed, looked up): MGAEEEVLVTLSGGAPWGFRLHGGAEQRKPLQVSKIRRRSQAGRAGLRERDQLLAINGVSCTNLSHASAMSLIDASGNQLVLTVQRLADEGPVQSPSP

T9: RGS12, O14924
T9 sequence (O14924 17-108, limits assumed, looked up): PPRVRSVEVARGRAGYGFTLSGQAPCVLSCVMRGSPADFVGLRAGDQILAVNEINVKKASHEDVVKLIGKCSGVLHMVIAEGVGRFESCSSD

T10: PDZD2_4, O15018
T10 sequence (O15018 723-823, limits assumed, looked up): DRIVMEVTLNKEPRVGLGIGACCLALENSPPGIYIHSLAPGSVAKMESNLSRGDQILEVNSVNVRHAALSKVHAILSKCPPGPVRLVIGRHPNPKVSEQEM

T11: PDZD2_5, O15018
T11 sequence (O15018 2617-2716, limits assumed, looked up): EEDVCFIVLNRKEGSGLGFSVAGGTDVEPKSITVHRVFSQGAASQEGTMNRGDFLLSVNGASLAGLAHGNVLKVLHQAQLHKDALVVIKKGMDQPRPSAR

T12: PTPN13_5, Q12923
T12 sequence (Q12923 1877-1975, limits assumed, looked up): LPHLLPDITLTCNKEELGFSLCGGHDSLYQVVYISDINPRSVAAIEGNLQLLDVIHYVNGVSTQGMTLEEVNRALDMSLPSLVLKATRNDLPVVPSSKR

T13: PDZD7_1, Q9H5P4
T13 sequence (Q9H5P4 81-178, limits assumed, looked up): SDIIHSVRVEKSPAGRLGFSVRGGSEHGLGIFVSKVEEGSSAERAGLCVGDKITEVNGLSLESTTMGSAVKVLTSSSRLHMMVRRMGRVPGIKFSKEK


Target: T1, PTPN4, P29074
Assay: holdup assay
Set-up: key: below the threshold = too weak to quantify, mostly under pKd 3.1 to 4
Details: plain residues with an end cap or a label only (N-terminal biotin on a linker: ttds)

Row | Binder | pKd
1 | RPLPRKVSQL [DOCK4, Q8N1I0] | below the threshold
2 | RLPKIKETTV [FRMPD4, Q14CM0] | 5.14

Target: T2, LNX2_4, Q8N448
Assay: holdup assay
Set-up: key: below the threshold = too weak to quantify, mostly under pKd 3.1 to 4
Details: plain residues with an end cap or a label only (N-terminal biotin on a linker: ttds)

Row | Binder | pKd
3 | RPLPRKVSQL [DOCK4, Q8N1I0] | below the threshold
4 | RLPKIKETTV [FRMPD4, Q14CM0] | below the threshold

Target: PARD3B_2, Q8TEW8
Assay: holdup assay
Set-up: key: below the threshold = too weak to quantify, mostly under pKd 3.1 to 4
Details: plain residues with an end cap or a label only (N-terminal biotin on a linker: ttds)

Chain of PARD3B_2, Q8TEW8 (Q8TEW8 376-471): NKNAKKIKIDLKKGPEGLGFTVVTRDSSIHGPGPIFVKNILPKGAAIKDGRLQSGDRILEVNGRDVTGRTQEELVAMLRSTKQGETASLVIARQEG

Row | Binder | pKd
5 | RPLPRKVSQL [DOCK4, Q8N1I0] | below the threshold
6 | RLPKIKETTV [FRMPD4, Q14CM0] | below the threshold

Target: T3, SHROOM4, Q9ULL8
Assay: holdup assay
Set-up: key: below the threshold = too weak to quantify, mostly under pKd 3.1 to 4
Details: plain residues with an end cap or a label only (N-terminal biotin on a linker: ttds)

Row | Binder | pKd
7 | RPLPRKVSQL [DOCK4, Q8N1I0] | below the threshold
8 | RLPKIKETTV [FRMPD4, Q14CM0] | below the threshold

Target: T4, USH1C_1, Q9Y6N9
Assay: holdup assay
Set-up: key: below the threshold = too weak to quantify, mostly under pKd 3.1 to 4
Details: plain residues with an end cap or a label only (N-terminal biotin on a linker: ttds)

Row | Binder | pKd
9 | RPLPRKVSQL [DOCK4, Q8N1I0] | below the threshold
10 | RLPKIKETTV [FRMPD4, Q14CM0] | below the threshold

Target: T5, PDZD4, Q76G19
Assay: holdup assay
Set-up: key: below the threshold = too weak to quantify, mostly under pKd 3.1 to 4
Details: plain residues with an end cap or a label only (N-terminal biotin on a linker: ttds)

Row | Binder | pKd
11 | RPLPRKVSQL [DOCK4, Q8N1I0] | below the threshold
12 | RLPKIKETTV [FRMPD4, Q14CM0] | below the threshold

Target: DLG2_1, Q15700
Assay: holdup assay
Set-up: key: below the threshold = too weak to quantify, mostly under pKd 3.1 to 4
Details: plain residues with an end cap or a label only (N-terminal biotin on a linker: ttds)

Row | Binder | pKd
13 | RPLPRKVSQL [DOCK4, Q8N1I0] | below the threshold
14 | RLPKIKETTV [FRMPD4, Q14CM0] | 5.32

Target: NHERF4_3, Q86UT5
Assay: holdup assay
Set-up: key: below the threshold = too weak to quantify, mostly under pKd 3.1 to 4
Details: plain residues with an end cap or a label only (N-terminal biotin on a linker: ttds)

Chain of NHERF4_3, Q86UT5 (Q86UT5 325-412): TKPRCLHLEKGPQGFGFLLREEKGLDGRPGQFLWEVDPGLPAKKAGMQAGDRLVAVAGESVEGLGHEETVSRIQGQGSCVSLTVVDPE

Row | Binder | pKd
15 | RPLPRKVSQL [DOCK4, Q8N1I0] | 4.21
16 | RLPKIKETTV [FRMPD4, Q14CM0] | below the threshold

Target: PDZRN4_2, Q6ZMN7
Assay: holdup assay
Set-up: key: below the threshold = too weak to quantify, mostly under pKd 3.1 to 4
Details: plain residues with an end cap or a label only (N-terminal biotin on a linker: ttds)

Chain of PDZRN4_2, Q6ZMN7 (Q6ZMN7 389-498): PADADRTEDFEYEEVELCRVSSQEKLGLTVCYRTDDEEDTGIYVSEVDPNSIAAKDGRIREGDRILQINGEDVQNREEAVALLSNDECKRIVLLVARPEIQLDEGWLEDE

Row | Binder | pKd
17 | RPLPRKVSQL [DOCK4, Q8N1I0] | 4.14
18 | RLPKIKETTV [FRMPD4, Q14CM0] | 4.43

Target: MAST3, O60307
Assay: holdup assay
Set-up: key: below the threshold = too weak to quantify, mostly under pKd 3.1 to 4
Details: plain residues with an end cap or a label only (N-terminal biotin on a linker: ttds)

Chain of MAST3, O60307 (O60307 945-1048): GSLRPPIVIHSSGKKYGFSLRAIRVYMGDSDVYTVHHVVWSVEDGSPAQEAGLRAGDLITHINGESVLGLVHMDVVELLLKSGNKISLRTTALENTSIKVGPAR

Row | Binder | pKd
19 | RPLPRKVSQL [DOCK4, Q8N1I0] | below the threshold
20 | RLPKIKETTV [FRMPD4, Q14CM0] | below the threshold

Target: T6, NHERF1_2, O14745
Assay: holdup assay
Set-up: key: below the threshold = too weak to quantify, mostly under pKd 3.1 to 4
Details: plain residues with an end cap or a label only (N-terminal biotin on a linker: ttds)

Row | Binder | pKd
21 | RPLPRKVSQL [DOCK4, Q8N1I0] | 4.45
22 | RLPKIKETTV [FRMPD4, Q14CM0] | below the threshold

Target: CARD14, Q9BXL6
Assay: holdup assay
Set-up: key: below the threshold = too weak to quantify, mostly under pKd 3.1 to 4
Details: plain residues with an end cap or a label only (N-terminal biotin on a linker: ttds)

Chain of CARD14, Q9BXL6 (Q9BXL6 558-663): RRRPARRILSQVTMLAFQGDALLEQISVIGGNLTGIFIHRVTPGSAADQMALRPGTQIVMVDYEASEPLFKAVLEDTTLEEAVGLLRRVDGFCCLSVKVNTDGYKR

Row | Binder | pKd
23 | RPLPRKVSQL [DOCK4, Q8N1I0] | below the threshold
24 | RLPKIKETTV [FRMPD4, Q14CM0] | below the threshold

Target: T7, SNTB2, Q13425
Assay: holdup assay
Set-up: key: below the threshold = too weak to quantify, mostly under pKd 3.1 to 4
Details: plain residues with an end cap or a label only (N-terminal biotin on a linker: ttds)

Row | Binder | pKd
25 | RPLPRKVSQL [DOCK4, Q8N1I0] | below the threshold
26 | RLPKIKETTV [FRMPD4, Q14CM0] | 5.36

Target: T8, SYNPO2L, Q9H987
Assay: holdup assay
Set-up: key: below the threshold = too weak to quantify, mostly under pKd 3.1 to 4
Details: plain residues with an end cap or a label only (N-terminal biotin on a linker: ttds)

Row | Binder | pKd
27 | RPLPRKVSQL [DOCK4, Q8N1I0] | below the threshold
28 | RLPKIKETTV [FRMPD4, Q14CM0] | below the threshold

Target: T9, RGS12, O14924
Assay: holdup assay
Set-up: key: below the threshold = too weak to quantify, mostly under pKd 3.1 to 4
Details: plain residues with an end cap or a label only (N-terminal biotin on a linker: ttds)

Row | Binder | pKd
29 | RPLPRKVSQL [DOCK4, Q8N1I0] | below the threshold
30 | RLPKIKETTV [FRMPD4, Q14CM0] | 4.61

Target: T10, PDZD2_4, O15018
Assay: holdup assay
Set-up: key: below the threshold = too weak to quantify, mostly under pKd 3.1 to 4
Details: plain residues with an end cap or a label only (N-terminal biotin on a linker: ttds)

Row | Binder | pKd
31 | RPLPRKVSQL [DOCK4, Q8N1I0] | below the threshold
32 | RLPKIKETTV [FRMPD4, Q14CM0] | below the threshold

Target: LMO7, Q8WWI1
Assay: holdup assay
Set-up: key: below the threshold = too weak to quantify, mostly under pKd 3.1 to 4
Details: plain residues with an end cap or a label only (N-terminal biotin on a linker: ttds)

Chain of LMO7, Q8WWI1 (Q8WWI1 1037-1138): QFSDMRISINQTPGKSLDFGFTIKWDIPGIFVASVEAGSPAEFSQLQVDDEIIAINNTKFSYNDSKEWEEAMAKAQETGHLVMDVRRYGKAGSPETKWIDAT

Row | Binder | pKd
33 | RPLPRKVSQL [DOCK4, Q8N1I0] | below the threshold
34 | RLPKIKETTV [FRMPD4, Q14CM0] | 4.45

Target: T11, PDZD2_5, O15018
Assay: holdup assay
Set-up: key: below the threshold = too weak to quantify, mostly under pKd 3.1 to 4
Details: plain residues with an end cap or a label only (N-terminal biotin on a linker: ttds)

Row | Binder | pKd
35 | RPLPRKVSQL [DOCK4, Q8N1I0] | below the threshold
36 | RLPKIKETTV [FRMPD4, Q14CM0] | below the threshold

Target: T12, PTPN13_5, Q12923
Assay: holdup assay
Set-up: key: below the threshold = too weak to quantify, mostly under pKd 3.1 to 4
Details: plain residues with an end cap or a label only (N-terminal biotin on a linker: ttds)

Row | Binder | pKd
37 | RPLPRKVSQL [DOCK4, Q8N1I0] | below the threshold
38 | RLPKIKETTV [FRMPD4, Q14CM0] | below the threshold

Target: T13, PDZD7_1, Q9H5P4
Assay: holdup assay
Set-up: key: below the threshold = too weak to quantify, mostly under pKd 3.1 to 4
Details: plain residues with an end cap or a label only (N-terminal biotin on a linker: ttds)

Row | Binder | pKd
39 | RPLPRKVSQL [DOCK4, Q8N1I0] | 4.33
40 | RLPKIKETTV [FRMPD4, Q14CM0] | below the threshold

Target: PDLIM4, P50479
Assay: holdup assay
Set-up: key: below the threshold = too weak to quantify, mostly under pKd 3.1 to 4
Details: plain residues with an end cap or a label only (N-terminal biotin on a linker: ttds)

Chain of PDLIM4, P50479 (P50479 1-83): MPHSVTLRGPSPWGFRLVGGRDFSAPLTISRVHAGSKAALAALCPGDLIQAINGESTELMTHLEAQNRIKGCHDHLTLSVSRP

Row | Binder | pKd
41 | RPLPRKVSQL [DOCK4, Q8N1I0] | below the threshold
42 | RLPKIKETTV [FRMPD4, Q14CM0] | below the threshold

Target: DVL2, O14641
Assay: holdup assay
Set-up: key: below the threshold = too weak to quantify, mostly under pKd 3.1 to 4
Details: plain residues with an end cap or a label only (N-terminal biotin on a linker: ttds)

Chain of DVL2, O14641 (O14641 260-359): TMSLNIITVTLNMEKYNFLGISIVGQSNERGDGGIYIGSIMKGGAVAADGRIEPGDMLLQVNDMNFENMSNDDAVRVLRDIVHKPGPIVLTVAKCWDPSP

Row | Binder | pKd
43 | RPLPRKVSQL [DOCK4, Q8N1I0] | below the threshold
44 | RLPKIKETTV [FRMPD4, Q14CM0] | below the threshold

Target: MAGIX, Q9H6Y5
Assay: holdup assay
Set-up: key: below the threshold = too weak to quantify, mostly under pKd 3.1 to 4
Details: plain residues with an end cap or a label only (N-terminal biotin on a linker: ttds)

Chain of MAGIX, Q9H6Y5 (Q9H6Y5 118-211): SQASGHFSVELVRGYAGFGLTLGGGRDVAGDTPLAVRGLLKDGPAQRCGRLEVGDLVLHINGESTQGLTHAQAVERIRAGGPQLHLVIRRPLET

Row | Binder | pKd
45 | RPLPRKVSQL [DOCK4, Q8N1I0] | below the threshold
46 | RLPKIKETTV [FRMPD4, Q14CM0] | below the threshold
